Results as given in the Immune Epitope Database (IEDB).

Assays:
HLA-A*29:02 [1] = experiment: IEDB peptide-MHC binding, purified MHC/competitive/fluorescence; filed as Kd, often an IC50 or EC50 that approximates it; ≥ and ≤ were set here for values at or beyond the usual limits of such assays
HLA-B*46:01 [2] = experiment: IEDB peptide-MHC binding, purified MHC/direct/fluorescence; filed as Kd, often an IC50 or EC50 that approximates it; ≥ and ≤ were set here for values at or beyond the usual limits of such assays
HLA-A*11:01 [3] = experiment: as above
HLA-B*58:01 [4] = experiment: as above
HLA-B*08:02 = experiment: as above
HLA-A*01:01 = experiment: as above
HLA-B*57:01 [5] = experiment: as above
HLA-A*02:01 [6] = experiment: as above
HLA-B*18:01 [7] = experiment: as above
HLA-B*40:01 = experiment: as above
HLA-A*29:02 [8] = experiment: as above
HLA-A*69:01 [9] = experiment: as above
HLA-A*03:01 [10] = experiment: as above
HLA-B*44:02 = experiment: as above
HLA-A*31:01 = experiment: as above
HLA-B*15:01 [11] = experiment: as above
HLA-B*27:05 = experiment: as above
HLA-A*24:02 = experiment: IEDB peptide-MHC binding, purified MHC/competitive/fluorescence; ≥ and ≤ were set here for values at or beyond the usual limits of such assays
HLA-A*03:01 [12] = experiment: as above
HLA-B*15:01 [13] = experiment: as above
HLA-A*02:01 [14] = experiment: as above
HLA-B*58:01 [15] = experiment: IEDB peptide-MHC binding, purified MHC/competitive/fluorescence; filed as Kd, often an IC50 or EC50 that approximates it; ≥ and ≤ were set here for values at or beyond the usual limits of such assays
HLA-A*02:01 [16] = experiment: as above
HLA-B*15:01 [17] = experiment: as above; conditions: source organism: Shigella flexneri 5 str. 8401
HLA-B*48:01 = experiment: IEDB peptide-MHC binding, purified MHC/direct/fluorescence; filed as Kd, often an IC50 or EC50 that approximates it; ≥ and ≤ were set here for values at or beyond the usual limits of such assays; conditions: source organism: West Nile virus
HLA-B*08:01 = experiment: as above; conditions: source organism: West Nile virus
HLA-B*07:02 = experiment: as above; conditions: source organism: West Nile virus
HLA-B*51:01 = experiment: IEDB peptide-MHC binding, purified MHC/competitive/fluorescence; filed as Kd, often an IC50 or EC50 that approximates it; ≥ and ≤ were set here for values at or beyond the usual limits of such assays; conditions: source organism: Pseudomonas aeruginosa PACS2
HLA-B*46:01 [18] = experiment: as above
HLA-B*57:01 [19] = experiment: as above; conditions: source organism: Pseudomonas aeruginosa PACS2
HLA-B*18:01 [20] = experiment: as above
HLA-B*39:01 = experiment: as above
HLA-A*26:01 = experiment: as above
HLA-A*69:01 [21] = experiment: as above
HLA-A*03:01 [22] = experiment: as above
HLA-A*02:12 [23] = experiment: as above; conditions: source organism: Pseudomonas aeruginosa PACS2
HLA-B*27:03 = experiment: as above
HLA-A*02:16 = experiment: IEDB peptide-MHC binding, purified MHC/direct/fluorescence; filed as Kd, often an IC50 or EC50 that approximates it; ≥ and ≤ were set here for values at or beyond the usual limits of such assays; conditions: source organism: Zaire ebolavirus
HLA-A*02:03 = experiment: as above; conditions: source organism: Zaire ebolavirus
HLA-A*02:11 = experiment: as above; conditions: source organism: Zaire ebolavirus
HLA-A*68:02 = experiment: as above; conditions: source organism: Zaire ebolavirus
HLA-A*02:19 = experiment: as above; conditions: source organism: Zaire ebolavirus
HLA-A*02:12 [24] = experiment: as above; conditions: source organism: Zaire ebolavirus
HLA-A*11:01 [25] = experiment: IEDB peptide-MHC binding, purified MHC/competitive/fluorescence; ≥ and ≤ were set here for values at or beyond the usual limits of such assays
[26] = source organism: Yellow fever virus
[27] = source organism: Zaire ebolavirus
[28] = source organism: Shigella flexneri 5 str. 8401
[29] = source organism: West Nile virus
[30] = source organism: Pseudomonas aeruginosa PACS2
[31] = source organism: Vaccinia virus WR
[32] = source organism: Vaccinia virus
[33] = source organism: Sudan ebolavirus
[34] = source organism: Yersinia pestis Antiqua

Sequence GMIAGWHGY has a Kd (HLA-A*29:02 [1]; source organism: Influenza B virus (B/Victoria/2/1987)) of 0.0016 µM.

GSRAYRNAL gave a Kd (HLA-B*46:01 [2]; [26]) of no less than 20 µM, a Kd (HLA-A*11:01 [3]; [26]) of no less than 20 µM and a Kd (HLA-B*58:01 [4]; [26]) of no less than 20 µM. The Kd (HLA-B*08:02; [26]) was no less than 20 µM, the Kd (HLA-A*01:01; [26]) was no less than 20 µM and the Kd (HLA-B*57:01 [5]; [26]) was no less than 20 µM. For the same sequence, the Kd (HLA-A*02:01 [6]; [26]) was no less than 20 µM, the Kd (HLA-B*18:01 [7]; [26]) was no less than 20 µM and the Kd (HLA-B*40:01; [26]) was no less than 20 µM. The Kd (HLA-A*29:02 [8]; [26]) was no less than 20 µM, the Kd (HLA-A*69:01 [9]; [26]) was no less than 20 µM and the Kd (HLA-A*03:01 [10]; [26]) was no less than 20 µM. The Kd (HLA-B*44:02; [26]) was no less than 20 µM, the Kd (HLA-A*31:01; [26]) was no less than 20 µM and the Kd (HLA-B*15:01 [11]; [26]) was no less than 20 µM. It also gave a Kd (HLA-B*27:05; [26]) of no less than 20 µM.

For GYYSTTIRY, the IC50 (HLA-A*24:02; [27]) was 0.831 µM, the IC50 (HLA-A*03:01 [12]; [27]) was no less than 300 µM and the IC50 (HLA-B*15:01 [13]; [27]) was 4.56 µM.

Sequence HILRSQGPF has an IC50 (HLA-A*02:01 [14]; [27]) of no less than 519 µM, an IC50 (HLA-A*24:02; [27]) of 5.72 µM and an IC50 (HLA-B*15:01 [13]; [27]) of 12.8 µM.

HLTPAQLSM showed a Kd (HLA-B*58:01 [15]; [28]) of no less than 5 µM, a Kd (HLA-A*02:01 [16]; [28]) of 0.301 µM and a Kd (HLA-B*15:01 [17]) of 1.78 µM.

KCRVKMEKL gave a Kd (HLA-B*48:01) of no less than 20 µM, a Kd (HLA-B*46:01 [2]; [29]) of no less than 20 µM and a Kd (HLA-A*11:01 [3]; [29]) of no less than 20 µM. For the same sequence, the Kd (HLA-B*58:01 [4]; [29]) was no less than 20 µM, the Kd (HLA-B*08:02; source organism: West Nile virus strain PTRoxo) was no less than 20 µM and the Kd (HLA-A*01:01; [29]) was no less than 20 µM. For the same sequence, the Kd (HLA-B*57:01 [5]; [29]) was no less than 20 µM, the Kd (HLA-A*02:01 [6]; [29]) was no less than 20 µM and the Kd (HLA-B*18:01 [7]; [29]) was no less than 20 µM. The Kd (HLA-B*40:01; [29]) was no less than 20 µM, the Kd (HLA-A*29:02 [8]; [29]) was no less than 20 µM and the Kd (HLA-A*69:01 [9]; [29]) was no less than 20 µM. The Kd (HLA-A*03:01 [10]; [29]) was no less than 20 µM, the Kd (HLA-B*44:02; [29]) was no less than 20 µM and the Kd (HLA-B*08:01) was no less than 20 µM. For the same sequence, the Kd (HLA-A*31:01; [29]) was no less than 20 µM, the Kd (HLA-B*07:02) was no less than 20 µM and the Kd (HLA-B*15:01 [11]; [29]) was no less than 20 µM. It also gave a Kd (HLA-B*27:05; [29]) of no less than 20 µM.

KLIDVSKCI was tested, and the Kd (HLA-B*51:01) was no less than 20 µM, the Kd (HLA-B*46:01 [18]; [30]) was no less than 20 µM and the Kd (HLA-B*57:01 [19]) was no less than 20 µM. It also gave a Kd (HLA-A*02:01 [16]; [30]) of 0.0086 µM, a Kd (HLA-B*18:01 [20]; [30]) of no less than 20 µM and a Kd (HLA-A*29:02 [1]; [30]) of no less than 20 µM. The Kd (HLA-B*39:01; [30]) was no less than 20 µM, the Kd (HLA-A*26:01; [30]) was no less than 20 µM and the Kd (HLA-A*69:01 [21]; [30]) was no less than 20 µM. For the same sequence, the Kd (HLA-A*03:01 [22]; [30]) was no less than 20 µM, the Kd (HLA-A*02:12 [23]) was 0.0109 µM and the Kd (HLA-B*27:03; [30]) was no less than 20 µM.

In the case of KTNDFAPAW, the Kd (HLA-A*02:16) is reported as no less than 20 µM, the Kd (HLA-A*02:03) is reported as no less than 20 µM and the Kd (HLA-A*02:11) is reported as no less than 20 µM. It also gave a Kd (HLA-A*68:02) of no less than 20 µM, a Kd (HLA-B*15:01 [11]; source organism: Ebola virus - Gabon (1994-1997)) of no less than 5 µM and a Kd (HLA-A*02:19) of no less than 20 µM. It also gave a Kd (HLA-A*02:12 [24]) of no less than 20 µM, a Kd (HLA-B*46:01 [18]; [27]) of no less than 20 µM and a Kd (HLA-B*58:01 [15]; [27]) of 0.0013 µM. The Kd (HLA-A*02:01 [16]; [27]) was no less than 20 µM, the Kd (HLA-B*18:01 [20]; [27]) was no less than 20 µM and the Kd (HLA-B*39:01; [27]) was no less than 20 µM. It also gave a Kd (HLA-A*26:01; [27]) of no less than 20 µM, a Kd (HLA-A*69:01 [21]; [27]) of no less than 20 µM and a Kd (HLA-B*27:03; [27]) of no less than 20 µM.

LMNFHQKKN was tested, and the IC50 (HLA-A*02:01 [14]; [27]) was no less than 123 µM, the IC50 (HLA-A*03:01 [12]; [27]) was no less than 334 µM and the IC50 (HLA-B*15:01 [13]; [27]) was no less than 265 µM.

Sequence LSAIALGVA has an IC50 (HLA-A*02:01 [14]; [27]) of 25.8 µM and an IC50 (HLA-B*15:01 [13]; [27]) of no less than 140 µM.

With MSNGEHVPF the IC50 (HLA-A*24:02; [31]) was 5.46 µM and the IC50 (HLA-B*15:01 [13]; [31]) was 48.7 µM.

RMNSNQVCI gave an IC50 (HLA-A*02:01 [14]; [32]) of 3.44 µM, an IC50 (HLA-A*24:02; [32]) of 0.0818 µM and an IC50 (HLA-A*03:01 [12]; [32]) of no less than 118 µM. For the same sequence, the IC50 (HLA-B*15:01 [13]; [32]) was 18.1 µM.

For RSTKGGQQK, the IC50 (HLA-A*11:01 [25]; [27]) was 1.81 µM and the IC50 (HLA-A*03:01 [12]; [27]) was 5.63 µM.

With RTYTILNRK the IC50 (HLA-A*11:01 [25]; [33]) was 0.163 µM, the IC50 (HLA-A*24:02; [33]) was 42.2 µM and the IC50 (HLA-A*03:01 [12]; [33]) was 1.05 µM.

SAYERGLRY gave a Kd (HLA-B*58:01 [15]; [34]) of no less than 20 µM and a Kd (HLA-A*03:01 [22]; [34]) of 0.0535 µM.

In the case of VGKTSQVPK, the IC50 (HLA-A*11:01 [25]; source organism: Variola virus) is reported as 1.55 µM and the IC50 (HLA-A*03:01 [12]; source organism: Variola virus) is reported as 13.5 µM.

VVTNSTLEV gave an IC50 (HLA-A*02:01 [14]; [33]) of 7.96 µM and an IC50 (HLA-B*15:01 [13]; [33]) of no less than 114 µM.

Work on WMNHHAITY yielded a Kd (HLA-A*29:02 [1]; source organism: Orientia tsutsugamushi str. Boryong) of no more than 0.0001 µM.
